The source of these data is publication PMC7371201.

The test system of data set [1] is NbGlk1(83-402) (Nicotiana benthamiana). Nature of the data set: fluorescence anisotropy. Conditions: DNA annealed in 150 mM NaCl, 15 mM Na citrate, binding buffer, pH and temperature not given in the material. A general note: Polarisation of emitted light reports the rotation of a fluorescent probe.
Data set [2] concerns the target NbDBCP-T (amino acids 1–414 of NbDBCP) (Nicotiana benthamiana). Nature of the data set: SEC; NbDBCP-T alone; approximate molecular weight by gel filtration chromatography.
In data set [3] the target is NbGlk1(83–402) (N. benthamiana (from the prefix Nb)). Nature of the data set: SEC; purified recombinant proteins run alone and after co-incubation; peak fractions visualised by SDS-PAGE.

With “CGGATATCCACGGATATCCACGGATATCCACGGATATCCACGGATATCCC (double strand) [FA-5/FA-6 concatenated GGATATCC GLK site duplex]”, the values for the Kd in data set [1] (NbGlk1 alone) and in data set [1] (with NbDBCP-T (1-414)) were 110 nM and 160 nM, respectively.

For “NbDBCP-T (amino acids 1–414 of NbDBCP) (domain or fragment)”, the stoichiometry N (commonly the number of molecules, sites or subunits per partner or assembly) in data set [2] stood at 2. In addition, the left:right ratio of NbDBCP within the 12-mL elution volume (densitometry; 1.37 for NbDBCP-T alone) in data set [3] stood at 1.6.
